Results taken from patent US20150064204A1 (Amgen, published 2015).

T1: human GITR (Glucocorticoid-induced TNFR-related gene, TNFRSF18) (human, UniProt Q9Y5U5 26-241)
T1 sequence: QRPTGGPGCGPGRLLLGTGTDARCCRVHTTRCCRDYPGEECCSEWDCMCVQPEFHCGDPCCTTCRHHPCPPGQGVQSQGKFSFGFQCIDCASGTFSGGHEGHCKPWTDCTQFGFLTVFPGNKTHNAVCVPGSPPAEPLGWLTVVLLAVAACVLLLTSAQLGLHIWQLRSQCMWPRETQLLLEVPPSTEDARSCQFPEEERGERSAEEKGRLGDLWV

B1: 48A9v1 (antibody, human IgG1, kappa, V domains shown)
VH: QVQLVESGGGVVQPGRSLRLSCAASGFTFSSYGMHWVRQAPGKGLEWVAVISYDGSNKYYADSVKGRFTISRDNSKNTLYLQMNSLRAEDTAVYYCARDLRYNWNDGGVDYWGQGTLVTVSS
VL: DIQMTQSPSSLSASVGDRVIITCRASQSISSYLHWYKQKPGKAPKLLIYGASRLQSGVPSRFSGSGSGTDFTLTISSLQPEDFATYYCQQSSSTPLTFGGGTKVEIKR
notes: tied to 48A9v1 by Ab24 / SS-12513; also called Ab24; SS-12513
B2: 44C1v1 (antibody, human IgG1, lambda, V domains shown)
VH: QVQLVESGGGVVQPGRSLRLSCAASGFTLSSYGMHWVRQAPGKGLEWVAVIWYDGSNKYYADSVKGRFTISRDNSKNTLYLQMNSLRAEDTAVYYCARRGTVTTPDFDYWGQGTLVTVSS
VL: QSALTQPASVSGSPGQSITISCTGTSSDVGTYNLVSWYQQHPGKAPKLMIYEVSKRPSGVSNRFSGSKSGNTASLTISGLQAEDEADYYCASYAGFSTWVFGGGTKLTVLG
notes: tied to 44C1v1 by Ab20 / SS-12514; also called Ab20; SS-12514
B3: 45A8v1 (antibody, human IgG1, lambda, V domains shown)
VH: QVQLVESGGGVVQPGRSLRLSCAASGFTFSSYGMHWVRQAPGKGLEWVAVIWHDGSNKYYADSVKGRFTISKDNSKNTLYLQMNSLRAEDTAVYYCAREYGGNFDYWGQGTLVTVSS
VL: QSALTQPASVSGSPGQSITISCTGTSSDVGTYNLVSWYQQHPGKAPKLMIYEVSKRPSGISNRFSGSKSGNTASLTISGLQAEDEADYYCASYAGYSTWVFGGGTKLTVLR
notes: tied to 45A8v1 by Ab21 / SS-12515; also called Ab21; SS-12515
B4: 49E2v1 (antibody, human IgG1, lambda, V domains shown)
VH: QVQLVESGGGVVQPGRSLRLSCAASGFTFSSYGMHWVRQAPGKGLEWVAVIWSDGNNKYYEDSVKGRFTISRDSSKNTLFLQMNSLRAEDTAVYYCARDTATPFDYWGQGTLVTVSS
VL: QSALTQPASVSGSPGQSITISCTGTSSDVGIYNLVSWYQQHPGKAPKLMIHEVSKRPSGVSNRFSGSKSGNTASLTISGLQAEDEADYYCASYAGISTWVFGGGTKLTVLG
notes: tied to 49E2v1 by Ab23 / SS-12516; also called Ab23; SS-12516
B5: 5H7 (antibody, human IgG1, kappa, V domains shown)
VH: QVQLQESGPGLVKPSQTLSLTCTVSGGSISSGGYFWSWIRQHPGKGLEWIGYIYYSGTTYYNPSLKSRVTISIDTSKNHFSLKLSSVTAADTAVYYCARDLFYYDSSGPRGFDPWGQGTLVTVSS
VL: EIVLTQSPGTLSLSPGERATLSCRASQTVSSNYLAWYQQKPGQAPRLLIYGSSTRATGIPDRFSGSGSGTDFTLTISRLEPEDFAVYYCQQYDSSPWTFGQGTKVEIKR
notes: Fully human parental antibody; also called Ab17; SS-10943
B6: 35B10 (antibody, human IgG1, kappa, V domains shown)
VH: QVQLVESGGGVVQPGRSLRLSCAASGFTFSSYGMHWVRQAPGKGLEWVAVIWYAGSNKYYADSVKGRFTISRDNSKNTLYLQMNSLRAEDTAVYYCARGGELSFYYYYGMDVWGQGTTVTVSS
VL: DIQMTQSPSSLSASVGDRVTITCRASQGIRNDLGWYQQKPGKAPKRLIYAASTLQSGVPSRFSGSGSGTEFTLTISSLQPEDFATYYCLQHNNYPWTFGQGTKVEIKR
notes: Fully human parental antibody; also called Ab5; SS-12416
B7: 41E11 (antibody, human IgG1, kappa, V domains shown)
VH: QVQVVESGGGVVQPGRSLRLSCAASGFTFSSYGMYWVRQAPGKGLEWVAVIWYEGSNKYYADSVRGRFTISRDNSKNTLYLQMNSLRAEDTALYYCARGGQLGKDYYSGMDVWGQGTTVTVSS
VL: DIQMTQSPSSLSASVGDRVTITCRASQVIRNDLGWYQQKPGKAPKRLIYAASSLQSGVPSRFSGSGSGTEFTLTISSLQPEDFATYYCLQHNSYPLTFGGGTKVEIKR
notes: Fully human parental antibody; also called Ab6; SS-12417
B8: 46E11 (antibody, human IgG1, kappa, V domains shown)
VH: QVQLVESGGGVVQPGRSLRLSCAASGFTFSSYGMHWVRQAPGKGLEWVAVIWYAGSNKYYADSVKGRFTISRDNSKNTLYLQMNSLRAEDTAVYYCARGDILTGYSLYYGMDVWGQGTTVTVSS
VL: DIQMTQSPSSLSASVGDRVTITCRASQGIRNDLGWYQQKPGKAPKRLIYAASSLQSGVPSRFSGSGSGAEFTLTISSLQPEDFATYYCLQHNSYPWTFGQGTKVEIKR
notes: Fully human parental antibody; also called Ab11; SS-12421
B9: 9H6 (antibody, human IgG1, kappa, V domains shown)
VH: QVQLVESGGGVVQPGRSLRLSCVASGFTFSSYGMHWIRQAPGKGLEWVAVIWYEGSNKYYADSVKGRFTISRDNSKNTLYLQMNSLRAEDTAVYYCARGGRLGKDYYSGMDVWGQGTTVTVSS
VL: DIQMTQSPSSLSASVGDRVTITCRASQGIRNDLGWYQQKPGKAPNRLIYATSSLQSGVPSRFSGSGSGTEFTLTISSLQPEDFATYYCLQHNTYPWTFGQGTKVEIKR
notes: Fully human parental antibody; also called Ab19; SS-10945
B10: 49D9v1 (antibody, human IgG1, kappa, V domains shown)
VH: QMQLVESGGGVVQPGGSLRLSCAASGFTFSSYGMHWVRQAPGKGLEWVAVIWYAGSNKYYADSVKGRFTISRDNSKNTLYLQMNSLRAEDTAVYYCARGGRLGFYYYYGMDVWGQGTTVTVSS
VL: DIQMTQSPSSLSASVGDRVTITCRASQGIRNDLGWYQQKPGKAPKRLIYAASSLQSGVPSRFSGSGSGTEFTLTISSLQPEDFATYYCLQLNSYPWTFGQGTKVEIKR
notes: tied to 49D9v1 by Ab22 / SS-12562; also called Ab22; SS-12562
B11: 48H12 (antibody, human IgG1, kappa, V domains shown)
VH: QVQLVESGGGVVQPGRSLRLSCAASGFTFSSYGMHWVRQAPGKGLEWVAVIWYAGSNKYYADSVKGRFTISRDNSKNTVYLQMNSLRAEDTAVYYCARGGQLALYYYYGMDVWGQGTTVTVSS
VL: DIQMTQSPSSLSASVGDRVTITCRASQGIRNDLGWYQQKPGKAPKRLIYAASSLQSGVPSRFSGSGSGTEFTLTISSLQPEDFATYYCLQHNNYPWTFGQGTKVEIKR
notes: Fully human parental antibody; also called Ab12; SS-12422
B12: 48H7 (antibody, human IgG1, kappa, V domains shown)
VH: QVQLVESGGGVVQPGRSLRLSCAASGFTFSSYGMYWVRQAPGKGLEWVAVIWYEGSNKYYADSVKGRFTISRDNSKNTLYLQMNSLRAEDTAVYFCARGGELGRDYYSGMDVWGQGTTVTVSS
VL: DIQMTQSPSSLSASVGDRVTITCRASQVIRNDLGWYQQKPGKAPKRLIYAASSLQSGVPSRFSGSGSGTEFTLTISSLQPEDFATYYCLQHNSYPITFGGGTKVEIKR
notes: Fully human parental antibody; also called Ab13; SS-12423
B13: 42A11 (antibody, human IgG1, kappa, V domains shown)
VH: QVQLVESGGGVVQPGRSLRLSCAASGFTFSSYGMHWVRQAPGKGLEWVAVIWYEGSNKYYADSVKGRFTISRDNSKNTLYLQMNSLRAEDTAVYYCARGGQLGYYYYSGMDVWGQGTTVTVSS
VL: DIQMTQSPSSLSASVGDRVTITCRASQGIRNDLGWYQQKPGKAPKRLIYDASSLQSGVPSRFSGSGSGTDFTLTISSLQPEEFATYYCLQHNNYPWTFGQGTKVEIKR
notes: Fully human parental antibody; also called Ab8; SS-12418
B14: 41G5 (antibody, human IgG1, kappa, V domains shown)
VH: QVQLVESGGGVVQPGRSLRLSCAASGFTFSSYGMHWVRQAPGKGLEWVAVIWYPGSNKYYADSVKGRFTISRDNSKNTLYLQMNSLRAEDTAVYYCARGGELGRYYYYGMDVWGQGTTVTVSS
VL: DIQMTQSPSSLSASVGDRVTVTCRASQGIRNDLGWYQQKPGKAPKRLIYAASSLQSGVPSRFSGSGSGTEFTLTISSLQPEDFATYYCLQHNNYPWTFGQGTKVDIKR
notes: Fully human parental antibody; also called Ab7; SS-12428

Key:
[1] = target: T1, human GITR (Glucocorticoid-induced …); assay: cell-based or functional assay
[2] = target: T1, human GITR (Glucocorticoid-induced …); assay: flow cytometry (MFI), antibody titration on anti-CD3-activated primary human T cells (CD25+CD4+)
Method: Cells were collected and washed and then incubated at 4 C with titrations of the anti-human GITR antibodies or a human IgG1 isotype control antibody. After washing, cells were stained at 4 C with fluorochrome conjugated anti-human CD4 and anti-human CD25 antibodies to identify activated CD4+ effector T cells and with fluorochrome-conjugated anti-huIgG to detect bound anti-human GITR antibodies. The mean fluorescence intensity (MFI) of the anti-human GITR antibodies bound to CD25+CD4+ cells was determined by flow cytometry. The EC50s of the binding curves were calculated using GraphPad Prism® software.

Row | Binder | IFNg Secretion (Fold over CD3) [1] [fold over CD3] | IFNg Secretion EC50 [1] [µg/mL] | EC50 [2] [µg/mL]
1 | B1 | 0.9 | 0.0791 | 0.145
2 | B2 | 1.6 | 0.0114 | 0.802
3 | B3 | 1.8 | 0.0007 | 0.102
4 | B4 | 1.9 | 0.0022 | 0.318
5 | B5 | 2.9 | 0.0113 | 0.164
6 | B6 | 1.9 | 0.0005 | 0.033
7 | B7 | 2 | 0.0003 | 0.048
8 | B8 | 2.2 | 0.0009 | 0.03
9 | B9 | 1.9 | 0.0005 | 0.026
10 | B10 | 1.3 | 0.0005 | 0.051
11 | B11 | 1.2 | 0.0008 | 0.048
12 | B12 | 1.2 | 0.0006 | 0.045
13 | B13 | 1.9 | 0.0012 | 0.051
14 | B14 | 1.9 | 0.0008 | 0.033
